Residue numbers refer to the chain shown, from its start.
Tests used:
[1] = target: T1, Trm1 M24 (nuclear isoform, WT) (Schizosaccharomyces pombe, UniProt Q9P804 24-548); experiment: EMSA; replicate 1 of 3; Hill coefficient 7.061; no SAM listed; EMSA: 20 mM Tris-HCl pH 7.6, 100 mM KCl, 0.2 mM EDTA, 1 mM DTT; 32 °C 20 min, ice 2 min; 8% native gel at 4 °C; settings: protein: recombinant; label: 32P (alpha-ATP, internal); tRNA fold, single strand
T1 sequence: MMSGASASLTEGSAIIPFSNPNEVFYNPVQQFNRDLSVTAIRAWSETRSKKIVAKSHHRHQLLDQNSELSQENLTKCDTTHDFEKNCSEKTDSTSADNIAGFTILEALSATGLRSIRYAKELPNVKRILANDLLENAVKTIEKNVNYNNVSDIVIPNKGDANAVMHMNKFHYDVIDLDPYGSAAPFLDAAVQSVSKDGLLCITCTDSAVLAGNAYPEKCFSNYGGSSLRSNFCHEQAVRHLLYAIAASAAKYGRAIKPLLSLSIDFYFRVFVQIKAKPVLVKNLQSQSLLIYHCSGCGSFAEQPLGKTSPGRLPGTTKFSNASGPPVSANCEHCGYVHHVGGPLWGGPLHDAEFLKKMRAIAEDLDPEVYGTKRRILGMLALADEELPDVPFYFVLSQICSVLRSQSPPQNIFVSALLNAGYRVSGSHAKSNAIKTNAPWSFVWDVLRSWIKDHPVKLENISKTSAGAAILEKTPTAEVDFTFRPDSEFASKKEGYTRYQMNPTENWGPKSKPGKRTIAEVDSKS

[2] = target: T2, Trm1 M24 D201A (catalytic-dead) (Schizosaccharomyces pombe, UniProt Q9P804 24-548, D201A); experiment: EMSA; affinity comparable to WT; Kd values not in material; no SAM listed; EMSA: 20 mM Tris-HCl pH 7.6, 100 mM KCl, 0.2 mM EDTA, 1 mM DTT; 32 °C 20 min, ice 2 min; 8% native gel at 4 °C; settings: protein: recombinant; label: 32P (alpha-ATP, internal); tRNA fold, single strand
T2 sequence: T1 sequence with D178A

B1: pre-tRNA SerUGA (structured_RNA)
RNA: GUCACUAUGUCCGAGUGGUUAAGGAGUUAGACUUGAAUCCUGUCUAGUCAUCUAAUGGGCUUUGCCCGCGCAGGUUCAAAUCCUGCUGGUGACGGUAUUU
In the case of B1, the Kd [1] is reported as 576 nM and the binding result [2] is reported as “binds”.

From publication PMC10652106, “Crosstalk between the tRNA methyltransferase Trm1 and RNA chaperone La influences eukaryotic tRNA maturation”
